What was measured:
COPA (human) = COPA (human) (UniProt P53621); assay: co-IP with IgG control, lysate of C-FLAG B3GNT2 cells, mass spectrometry
CLTC (human) = CLTC (human) (UniProt Q00610); assay: as above
RPS20 (human) = RPS20 (human) (UniProt P60866); assay: as above
SPARC (human) = SPARC (human) (UniProt P09486); assay: as above
TGM1 (human) [1] = target: TGM1 (human) (UniProt P22735); assay: as above
SRSF6 (human) [2] = target: SRSF6 (human) (UniProt Q13247); assay: as above
PUF60 (human) [3] = target: PUF60 (human) (UniProt Q9UHX1); assay: as above
PRRC2C (human) = PRRC2C (human) (UniProt Q9Y520); assay: as above
NAP1L1 (human) [4] = target: NAP1L1 (human) (UniProt P55209); assay: as above
RPL6 (human) = RPL6 (human) (UniProt Q02878); assay: as above
CPSF7 (human) [5] = target: CPSF7 (human) (UniProt Q8N684); assay: as above
TM9SF1 (human) = TM9SF1 (human) (UniProt O15321); assay: as above
DDX3X (human) [6] = target: DDX3X (human) (UniProt O00571); assay: as above
HNRNPH1 (human) [7] = target: HNRNPH1 (human) (UniProt P31943); assay: as above
P4HA2 (human) = P4HA2 (human) (UniProt O15460); assay: as above
SBSN (human) [8] = target: SBSN (human) (UniProt Q6UWP8); assay: as above
DDX17 (human) [9] = target: DDX17 (human) (UniProt Q92841); assay: as above
JUP (human) = JUP (human) (UniProt P14923); assay: as above
XPOT (human) [10] = target: XPOT (human) (UniProt O43592); assay: as above
PSMB5 (human) = PSMB5 (human) (UniProt P28074); assay: co-IP with IgG control, lysate of N-FLAG B3GNT2 cells, mass spectrometry
MMS19 (human) = MMS19 (human) (UniProt Q96T76); assay: as above
MMP14 (human) = MMP14 (human) (UniProt P50281); assay: as above
TTC13 (human) = TTC13 (human) (UniProt Q8NBP0); assay: as above
RPS24 (human) = RPS24 (human) (UniProt P62847); assay: as above
TGM1 (human) [11] = target: TGM1 (human) (UniProt P22735); assay: as above
SRSF6 (human) [12] = target: SRSF6 (human) (UniProt Q13247); assay: as above
PUF60 (human) [13] = target: PUF60 (human) (UniProt Q9UHX1); assay: as above
HBB (human) = HBB (human) (UniProt P68871); assay: as above
NAP1L1 (human) [14] = target: NAP1L1 (human) (UniProt P55209); assay: as above
CPSF7 (human) [15] = target: CPSF7 (human) (UniProt Q8N684); assay: as above
PURA (human) = PURA (human) (UniProt Q00577); assay: as above
DDX3X (human) [16] = target: DDX3X (human) (UniProt O00571); assay: as above
HNRNPH1 (human) [17] = target: HNRNPH1 (human) (UniProt P31943); assay: as above
SBSN (human) [18] = target: SBSN (human) (UniProt Q6UWP8); assay: as above
DDX17 (human) [19] = target: DDX17 (human) (UniProt Q92841); assay: as above
XPOT (human) [20] = target: XPOT (human) (UniProt O43592); assay: as above
UniProt P01837.1 = assay: as above

Chain of CPSF7 (human) (Q8N684 whole entry): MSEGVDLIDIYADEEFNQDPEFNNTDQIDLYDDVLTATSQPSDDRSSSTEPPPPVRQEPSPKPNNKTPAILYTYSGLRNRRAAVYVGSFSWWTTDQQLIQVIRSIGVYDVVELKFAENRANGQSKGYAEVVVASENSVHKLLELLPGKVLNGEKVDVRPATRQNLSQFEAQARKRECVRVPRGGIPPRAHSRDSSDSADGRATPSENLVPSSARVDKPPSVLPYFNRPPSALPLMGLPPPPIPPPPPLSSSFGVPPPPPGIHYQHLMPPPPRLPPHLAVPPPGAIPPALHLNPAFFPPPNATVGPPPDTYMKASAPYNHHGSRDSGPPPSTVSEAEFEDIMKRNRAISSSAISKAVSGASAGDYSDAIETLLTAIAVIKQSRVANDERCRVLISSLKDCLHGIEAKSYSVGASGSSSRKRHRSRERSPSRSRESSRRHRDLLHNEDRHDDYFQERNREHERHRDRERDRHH
Chain of XPOT (human) (O43592 whole entry): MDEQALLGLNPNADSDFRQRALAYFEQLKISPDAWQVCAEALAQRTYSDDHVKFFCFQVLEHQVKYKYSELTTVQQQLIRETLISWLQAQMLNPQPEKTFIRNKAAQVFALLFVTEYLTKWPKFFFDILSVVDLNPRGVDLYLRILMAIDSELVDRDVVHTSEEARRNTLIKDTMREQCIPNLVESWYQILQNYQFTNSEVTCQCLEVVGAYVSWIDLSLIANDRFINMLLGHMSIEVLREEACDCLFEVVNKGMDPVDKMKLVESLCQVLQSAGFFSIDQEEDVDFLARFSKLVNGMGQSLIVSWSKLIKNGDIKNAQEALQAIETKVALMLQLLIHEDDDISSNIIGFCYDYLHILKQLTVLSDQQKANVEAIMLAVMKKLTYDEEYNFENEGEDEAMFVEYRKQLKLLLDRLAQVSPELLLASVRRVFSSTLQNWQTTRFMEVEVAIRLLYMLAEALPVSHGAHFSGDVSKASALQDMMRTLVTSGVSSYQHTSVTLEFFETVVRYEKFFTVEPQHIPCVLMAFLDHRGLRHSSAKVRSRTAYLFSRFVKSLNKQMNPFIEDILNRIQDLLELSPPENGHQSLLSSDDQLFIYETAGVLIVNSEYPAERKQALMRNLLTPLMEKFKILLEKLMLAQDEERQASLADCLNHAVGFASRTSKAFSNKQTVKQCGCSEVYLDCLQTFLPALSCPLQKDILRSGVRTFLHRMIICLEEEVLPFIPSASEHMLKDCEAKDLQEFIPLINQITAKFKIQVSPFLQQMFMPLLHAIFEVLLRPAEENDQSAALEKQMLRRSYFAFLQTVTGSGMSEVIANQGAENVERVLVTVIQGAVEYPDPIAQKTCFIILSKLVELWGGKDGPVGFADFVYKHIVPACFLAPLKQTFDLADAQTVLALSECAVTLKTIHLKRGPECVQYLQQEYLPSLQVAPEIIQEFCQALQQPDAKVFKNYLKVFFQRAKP
Chain of DDX17 (human) (Q92841 whole entry): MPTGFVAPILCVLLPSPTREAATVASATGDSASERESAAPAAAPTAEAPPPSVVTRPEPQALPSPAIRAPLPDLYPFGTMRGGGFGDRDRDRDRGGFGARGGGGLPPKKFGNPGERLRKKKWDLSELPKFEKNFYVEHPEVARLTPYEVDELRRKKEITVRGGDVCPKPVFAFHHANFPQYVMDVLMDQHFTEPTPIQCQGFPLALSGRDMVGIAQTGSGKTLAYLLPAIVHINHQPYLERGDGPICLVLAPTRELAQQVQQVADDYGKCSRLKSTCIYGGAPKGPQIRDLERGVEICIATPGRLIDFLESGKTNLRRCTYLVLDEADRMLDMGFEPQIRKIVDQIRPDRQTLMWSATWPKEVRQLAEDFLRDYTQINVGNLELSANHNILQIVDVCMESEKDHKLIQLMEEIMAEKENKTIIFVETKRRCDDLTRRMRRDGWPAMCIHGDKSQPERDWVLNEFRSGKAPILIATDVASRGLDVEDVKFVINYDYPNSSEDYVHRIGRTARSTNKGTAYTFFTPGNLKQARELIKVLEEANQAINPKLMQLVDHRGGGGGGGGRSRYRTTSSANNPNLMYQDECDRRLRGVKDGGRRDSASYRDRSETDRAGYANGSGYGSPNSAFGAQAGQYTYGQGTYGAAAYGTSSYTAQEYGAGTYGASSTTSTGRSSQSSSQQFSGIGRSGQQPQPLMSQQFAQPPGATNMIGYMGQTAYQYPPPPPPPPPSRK
Chain of NAP1L1 (human) (P55209 2-388 limits assumed): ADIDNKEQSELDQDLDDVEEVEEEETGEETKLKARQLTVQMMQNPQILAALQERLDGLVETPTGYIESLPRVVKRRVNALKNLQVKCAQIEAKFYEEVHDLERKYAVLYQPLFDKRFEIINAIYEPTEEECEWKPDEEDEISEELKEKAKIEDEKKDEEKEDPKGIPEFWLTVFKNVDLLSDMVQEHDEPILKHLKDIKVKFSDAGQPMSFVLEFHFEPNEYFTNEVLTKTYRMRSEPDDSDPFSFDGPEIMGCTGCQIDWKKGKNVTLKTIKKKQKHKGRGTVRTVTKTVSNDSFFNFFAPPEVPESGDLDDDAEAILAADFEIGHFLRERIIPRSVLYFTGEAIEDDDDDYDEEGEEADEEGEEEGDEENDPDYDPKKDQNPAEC
Chain of PUF60 (human) (Q9UHX1 whole entry): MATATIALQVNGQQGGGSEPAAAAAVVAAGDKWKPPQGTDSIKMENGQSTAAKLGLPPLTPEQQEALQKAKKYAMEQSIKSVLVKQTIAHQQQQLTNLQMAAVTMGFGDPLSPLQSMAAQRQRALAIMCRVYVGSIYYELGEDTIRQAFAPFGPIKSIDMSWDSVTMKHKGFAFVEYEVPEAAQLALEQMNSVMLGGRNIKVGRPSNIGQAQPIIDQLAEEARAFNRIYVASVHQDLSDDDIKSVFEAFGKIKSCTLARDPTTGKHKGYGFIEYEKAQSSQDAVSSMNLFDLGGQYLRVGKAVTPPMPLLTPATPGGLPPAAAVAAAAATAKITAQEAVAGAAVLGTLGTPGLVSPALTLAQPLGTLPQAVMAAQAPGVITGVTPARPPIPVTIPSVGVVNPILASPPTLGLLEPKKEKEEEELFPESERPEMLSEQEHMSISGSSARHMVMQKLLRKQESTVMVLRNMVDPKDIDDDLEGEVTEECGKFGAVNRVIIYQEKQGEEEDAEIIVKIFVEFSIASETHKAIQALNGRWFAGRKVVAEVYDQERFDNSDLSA
Chain of SRSF6 (human) (Q13247 whole entry): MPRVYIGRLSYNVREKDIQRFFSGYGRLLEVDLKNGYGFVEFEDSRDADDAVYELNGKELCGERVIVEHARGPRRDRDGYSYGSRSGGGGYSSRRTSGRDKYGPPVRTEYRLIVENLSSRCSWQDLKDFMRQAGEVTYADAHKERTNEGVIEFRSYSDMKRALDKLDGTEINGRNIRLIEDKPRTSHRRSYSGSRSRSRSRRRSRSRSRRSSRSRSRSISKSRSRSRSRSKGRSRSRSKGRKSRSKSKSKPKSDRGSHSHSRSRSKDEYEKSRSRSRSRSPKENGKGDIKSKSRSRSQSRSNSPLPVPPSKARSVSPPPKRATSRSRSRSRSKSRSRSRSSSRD
Chain of SBSN (human) (Q6UWP8 26-590 limits assumed): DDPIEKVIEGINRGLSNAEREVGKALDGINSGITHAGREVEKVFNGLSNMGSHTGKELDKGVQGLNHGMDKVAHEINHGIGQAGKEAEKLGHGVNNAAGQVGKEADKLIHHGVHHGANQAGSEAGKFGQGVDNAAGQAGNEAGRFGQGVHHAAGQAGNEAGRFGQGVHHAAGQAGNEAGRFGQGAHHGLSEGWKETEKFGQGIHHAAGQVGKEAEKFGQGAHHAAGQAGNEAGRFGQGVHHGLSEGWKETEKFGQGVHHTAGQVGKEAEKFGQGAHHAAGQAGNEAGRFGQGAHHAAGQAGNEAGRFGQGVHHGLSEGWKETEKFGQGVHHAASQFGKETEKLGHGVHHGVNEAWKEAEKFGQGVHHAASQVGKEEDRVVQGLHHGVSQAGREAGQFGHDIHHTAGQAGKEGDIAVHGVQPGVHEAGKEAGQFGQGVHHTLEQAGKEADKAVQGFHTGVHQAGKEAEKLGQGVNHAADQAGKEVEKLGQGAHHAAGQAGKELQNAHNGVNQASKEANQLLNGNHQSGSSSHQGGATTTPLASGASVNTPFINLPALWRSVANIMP
Chain of DDX3X (human) (O00571 2-662 limits assumed): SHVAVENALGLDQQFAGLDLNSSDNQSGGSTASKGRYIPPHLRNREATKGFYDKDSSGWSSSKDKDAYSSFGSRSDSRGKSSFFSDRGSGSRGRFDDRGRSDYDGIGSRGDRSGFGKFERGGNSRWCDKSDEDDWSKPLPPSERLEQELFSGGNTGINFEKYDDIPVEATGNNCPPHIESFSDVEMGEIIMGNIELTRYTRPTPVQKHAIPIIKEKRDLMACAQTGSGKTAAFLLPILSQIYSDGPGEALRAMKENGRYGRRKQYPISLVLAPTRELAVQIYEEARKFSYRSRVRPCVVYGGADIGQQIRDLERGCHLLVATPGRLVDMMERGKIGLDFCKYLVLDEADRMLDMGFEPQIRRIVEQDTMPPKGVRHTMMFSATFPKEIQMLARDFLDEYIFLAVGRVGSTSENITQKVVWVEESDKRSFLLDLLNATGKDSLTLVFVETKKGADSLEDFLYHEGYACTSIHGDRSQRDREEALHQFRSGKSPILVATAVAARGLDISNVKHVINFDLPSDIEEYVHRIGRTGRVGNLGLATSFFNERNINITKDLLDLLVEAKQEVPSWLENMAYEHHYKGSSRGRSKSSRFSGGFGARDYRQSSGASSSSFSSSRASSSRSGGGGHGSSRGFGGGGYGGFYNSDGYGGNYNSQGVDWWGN
Chain of SPARC (human) (P09486 18-303 limits assumed): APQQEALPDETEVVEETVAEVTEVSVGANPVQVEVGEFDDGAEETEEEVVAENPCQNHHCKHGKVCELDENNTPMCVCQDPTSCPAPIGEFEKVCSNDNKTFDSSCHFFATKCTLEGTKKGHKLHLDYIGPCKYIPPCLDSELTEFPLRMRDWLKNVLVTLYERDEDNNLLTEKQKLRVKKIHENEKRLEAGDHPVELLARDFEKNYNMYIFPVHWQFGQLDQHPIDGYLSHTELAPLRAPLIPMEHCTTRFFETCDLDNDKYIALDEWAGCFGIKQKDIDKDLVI

Which results are given for “IgG control (Millipore Sigma 12-371) (antibody)”?
co-IP/MS count, C-term IgG (COPA (human)): 0; co-IP/MS count, C-term IgG (CLTC (human)): 5; co-IP/MS count, C-term IgG (RPS20 (human)): 5; co-IP/MS count, C-term IgG (SPARC (human)): 0; co-IP/MS count, C-term IgG (TGM1 (human) [1]): 10; co-IP/MS count, C-term IgG (SRSF6 (human) [2]): 5; co-IP/MS count, C-term IgG (PUF60 (human) [3]): 5; co-IP/MS count, C-term IgG (PRRC2C (human)): 6; co-IP/MS count, C-term IgG (NAP1L1 (human) [4]): 0; co-IP/MS count, C-term IgG (RPL6 (human)): 4; co-IP/MS count, C-term IgG (CPSF7 (human) [5]): 9; co-IP/MS count, C-term IgG (TM9SF1 (human)): 0; co-IP/MS count, C-term IgG (DDX3X (human) [6]): 15; co-IP/MS count, C-term IgG (HNRNPH1 (human) [7]): 11; co-IP/MS count, C-term IgG (P4HA2 (human)): 0; co-IP/MS count, C-term IgG (SBSN (human) [8]): 15; co-IP/MS count, C-term IgG (DDX17 (human) [9]): 22; co-IP/MS count, C-term IgG (JUP (human)): 36; co-IP/MS count, C-term IgG (XPOT (human) [10]): 0; co-IP/MS count, N-term IgG (PSMB5 (human)): 0; co-IP/MS count, N-term IgG (MMS19 (human)): 0; co-IP/MS count, N-term IgG (MMP14 (human)): 0; co-IP/MS count, N-term IgG (TTC13 (human)): 0; co-IP/MS count, N-term IgG (RPS24 (human)): 4; co-IP/MS count, N-term IgG (TGM1 (human) [11]): 9; co-IP/MS count, N-term IgG (SRSF6 (human) [12]): 3; co-IP/MS count, N-term IgG (PUF60 (human) [13]): 5; co-IP/MS count, N-term IgG (HBB (human)): 0; co-IP/MS count, N-term IgG (NAP1L1 (human) [14]): 0; co-IP/MS count, N-term IgG (CPSF7 (human) [15]): 8; co-IP/MS count, N-term IgG (PURA (human)): 2; co-IP/MS count, N-term IgG (DDX3X (human) [16]): 19; co-IP/MS count, N-term IgG (HNRNPH1 (human) [17]): 11; co-IP/MS count, N-term IgG (SBSN (human) [18]): 25; co-IP/MS count, N-term IgG (DDX17 (human) [19]): 23; co-IP/MS count, N-term IgG (XPOT (human) [20]): 0; co-IP/MS count, N-term IgG (UniProt P01837.1): 87

— patent publication US20240261333A1, “NOVEL TARGETS FOR ENHANCING ANTI-TUMOR IMMUNITY” (THE BROAD INSTITUTE, INC., priority 2021, published 2024)
